Assay results reported in PMC6423188, “HYNIC and DOMA conjugated radiolabeled bombesin analogs as receptor-targeted probes for scintigraphic detection of breast tumor” (EJNMMI Research, 2019).

How the values were obtained:
in vitro = in vitro ADME; conditions: rat
Procedure: An aliquot (100 μL) of ^99mTc-BN1/^99mTc-BN2/^99mTc-BN3/^99mTc-BN4/^99mTc-BNS was added to 1 mL of freshly collected rat serum in centrifuge tube. The mixture was then incubated at 37 °C for 1 h; the serum protein was precipitated by adding 1 mL trichloroacetic acid (10%, V/V). The supernatant and precipitate were separated by centrifugation at 3000 rpm for 5 min. Radioactivities of both the phases were measured separately. The above experimental procedure was repeated three times. The percentage of protein binding was determined as: Plasma protein binding % = (precipitate counts (CPM) / [precipitate counts (CPM) + plasma counts (CPM)]) × 100%.

physchem = type: physicochemical; conditions: pH 7.4
Procedure: Lipophilicity of the HPLC-purified radiopeptide analogs was determined through octanol/water partition coefficients, determined at pH 7.4 by measuring the distribution of the HPLC purified radiolabeled peptides in 1-octanol and PBS. Then, 50 μL HPLC purified ^99mTc-BN1/^99mTc-BN2/^99mTc-BN3/^99mTc-BN4/^99mTc-BNS with 100 μCi of radiolabeled compound in PBS was added to a to a centrifuge tube containing 1 mL n-octanol and 1 mL PBS (0.025 M, pH 7.4). The tube was vortexed at room temperature for 2 min and they are centrifuged at 5000 rpm for 5 min to ensure complete separation of layers. Further, 100 μL of each phase was transferred into a separate pre-weighed vial and measured in the well γ-counter. The ratio of octanol layer counts to aqueous layer counts was expressed as the distribution coefficient (D, the appropriate descriptor for ionizable compounds) and logD was used for determination of lipophilicity. Counts per unit weight of the sample were calculated, and logD value as calculated as follows:
log10D = log10 [(cpm in octanol – cpm in background) / (cpm in buffer – cpm in background)]

[1] = test system: MDA-MB-231 tumor-bearing mice; experiment: In vivo biodistribution; set-up: species or system mouse; conditions: for Tumor uptake: MDA-MB-231 tumor; for Tumor uptake / Blood uptake / Heart uptake / Intestine uptake / Kidney uptake / Liver uptake / Lung uptake / Muscle uptake / Pancreas uptake / Spleen uptake / Stomach uptake / Urine + urinary bladder uptake: mean ± SD, n = 3
Procedure: All animal experiments were done according to the CSIR-IICB Animal Ethics Committee’s rules and regulation. Forty-eight hours before tumor cell implantation, an immunosuppressive drug (cyclosporine-A) was given intraperitoneal (i.p) at a concentration of 30 mg/kg/day. After that, MDA-MB-231 cells (5 × 10^6) 0.2 mL were implanted subcutaneously into the left flanks of the hind leg of BALB/c mice. Thereafter, the same dose of cyclosporine was given i.p. daily up to 2 weeks. Two weeks after inoculation of the tumor cells, when tumors reached ~ 0.5 cm in mean diameter, the tumor-bearing mice were used for biodistribution and imaging studies. Animals were monitored daily and their weights were recorded. Control group of mice received only 0.9 wt% saline. After cell implantation, the growth rate of the breast tumor followed a satisfactory pattern of spheroid shape and tumors are palpable within 2 to 4 weeks. MDA-MB-231 cell implanted mice tumor models were used for biodistribution and planar imaging studies of these radiolabeled new bombesin analogs.
In tissue biodistribution studies, tumor-bearing animals were divided into four groups and well hydrated for 1 h by intraperitoneal administration of saline (0.9%, 2 mL). Three animals per groups were used for biodistribution studies. After that, the radiolabeled new bombesin analogs (^99mTc-BN) were injected intravenously in each animal of each group consequently through the tail vein [24–27]. After 5, 30, 60, and 120 min intravenous administrations of radiolabeled analogs, the animals were sacrificed; blood, heart, lung, liver, kidney, stomach, intestine, spleen, pancreas, brain, muscle, and tumor were excised, weighed, and counted for radioactivity. The organ uptake was calculated as a percentage of the injected activity per gram of wet tissue (%IA/g). In order to evaluate whether binding of bombesin analogs to MDA-MB-231 cells in vivo is specific; blocking studies with ^99mTc-labeled bombesin analogs in tumor-bearing mice were carried out. Groups of three animals were injected 0.03 nmol of ^99mTc-labeled BN analogs (2 MBq) with 25 nmol of non-radiolabeled BN peptide. After 60 min and 120 min, mice were sacrificed and the organs were collected. Each organ was weighed and counted in a gamma counter along with activity standard and percentage of injected activity per gram (%IA/g) of tissue was calculated for each type of tissues. Counts were corrected for background radiation and physical decay of the radioactivity. The uptake was expressed in the percentage of injected activity per gram of each organ (%IA/g). Data were analyzed statistically by the t test, with the level of significance set at P < 0.05.

[2] = 60 min p.i., blocked with excess non-radiolabeled BN peptide

In the case of “^99mTc-HYNIC-Asp-Asn-[Lys^11CHAla^13Nle^14]-BN(7-14)NH2 [99mTc-BN3]”, the “Percentage of plasma protein binding” value (in vitro) is reported as 26.00%, the logD (physchem) is reported as “− 2.21 ± 0.13” and the tumor/blood ratio ([1]; 5 min p.i.) is reported as 2.37. It also gave a tumor/kidney ratio ([1]; 5 min p.i.) of 0.64, a tumor/muscle ratio ([1]; 5 min p.i.) of 2.56 and a Tumor uptake ([1]; 5 min p.i., i.v.) of 1.28 ± 0.01 %IA/g. The Blood uptake ([1]; 5 min p.i., i.v.) was 0.54 ± 0.01 %IA/g, the Heart uptake ([1]; 5 min p.i., i.v.) was 0.91 ± 0.03 %IA/g and the Intestine uptake ([1]; 5 min p.i., i.v.) was 1.21 ± 0.06 %IA/g. For the same substance, the Kidney uptake ([1]; 5 min p.i., i.v.) was 1.97 ± 0.11 %IA/g, the Liver uptake ([1]; 5 min p.i., i.v.) was 0.44 ± 0.03 %IA/g and the Lung uptake ([1]; 5 min p.i., i.v.) was 0.87 ± 0.14 %IA/g. The Muscle uptake ([1]; 5 min p.i., i.v.) was 0.50 ± 0.01 %IA/g, the Pancreas uptake ([1]; 5 min p.i., i.v.) was 2.78 ± 0.11 %IA/g and the Spleen uptake ([1]; 5 min p.i., i.v.) was 0.54 ± 0.04 %IA/g. For the same substance, the Stomach uptake ([1]; 5 min p.i., i.v.) was 0.52 ± 0.02 %IA/g, the “Urine + urinary bladder uptake” value ([1]; 5 min p.i., i.v.) was 0.61 ± 0.04 %IA/g and the tumor/blood ratio ([1]; 30 min p.i.) was 3.47. It also gave a tumor/kidney ratio ([1]; 30 min p.i.) of 0.76, a tumor/muscle ratio ([1]; 30 min p.i.) of 9.83 and a Tumor uptake ([1]; 30 min p.i., i.v.) of 2.95 ± 0.01 %IA/g. The Blood uptake ([1]; 30 min p.i., i.v.) was 0.85 ± 0.01 %IA/g, the Heart uptake ([1]; 30 min p.i., i.v.) was 0.77 ± 0.02 %IA/g and the Intestine uptake ([1]; 30 min p.i., i.v.) was 1.46 ± 0.05 %IA/g. The Kidney uptake ([1]; 30 min p.i., i.v.) was 3.88 ± 0.21 %IA/g, the Liver uptake ([1]; 30 min p.i., i.v.) was 0.23 ± 0.13 %IA/g and the Lung uptake ([1]; 30 min p.i., i.v.) was 0.62 ± 0.03 %IA/g. For the same substance, the Muscle uptake ([1]; 30 min p.i., i.v.) was 0.30 ± 0.02 %IA/g, the Pancreas uptake ([1]; 30 min p.i., i.v.) was 3.59 ± 0.03 %IA/g and the Spleen uptake ([1]; 30 min p.i., i.v.) was 0.46 ± 0.01 %IA/g. For the same substance, the Stomach uptake ([1]; 30 min p.i., i.v.) was 0.74 ± 0.04 %IA/g, the “Urine + urinary bladder uptake” value ([1]; 30 min p.i., i.v.) was 2.80 ± 0.01 %IA/g and the tumor/blood ratio ([1]; 60 min p.i.) was 5.71. It also gave a tumor/kidney ratio ([1]; 60 min p.i.) of 0.85, a tumor/muscle ratio ([1]; 60 min p.i.) of 10.38 and a Tumor uptake [1, 2] of 0.54 ± 0.20 %IA/g. The Blood uptake [1, 2] was 0.30 ± 0.01 %IA/g, the Heart uptake [1, 2] was 0.29 ± 0.11 %IA/g and the Intestine uptake [1, 2] was 1.36 ± 0.23 %IA/g. It also gave a Kidney uptake [1, 2] of 3.18 ± 0.20 %IA/g, a Liver uptake [1, 2] of 0.20 ± 0.03 %IA/g and a Lung uptake [1, 2] of 0.52 ± 0.02 %IA/g. The Muscle uptake [1, 2] was 0.16 ± 0.21 %IA/g, the Pancreas uptake [1, 2] was 0.92 ± 0.02 %IA/g and the Spleen uptake [1, 2] was 0.33 ± 0.03 %IA/g. For the same substance, the Stomach uptake [1, 2] was 0.37 ± 0.10 %IA/g, the “Urine + urinary bladder uptake” value [1, 2] was 3.52 ± 0.07 %IA/g and the Tumor uptake ([1]; 60 min p.i., i.v.) was 2.70 ± 0.02 %IA/g. For the same substance, the Blood uptake ([1]; 60 min p.i., i.v.) was 0.47 ± 0.04 %IA/g, the Heart uptake ([1]; 60 min p.i., i.v.) was 0.35 ± 0.02 %IA/g and the Intestine uptake ([1]; 60 min p.i., i.v.) was 1.85 ± 0.21 %IA/g. For the same substance, the Kidney uptake ([1]; 60 min p.i., i.v.) was 3.17 ± 0.17 %IA/g, the Liver uptake ([1]; 60 min p.i., i.v.) was 0.18 ± 0.12 %IA/g and the Lung uptake ([1]; 60 min p.i., i.v.) was 0.50 ± 0.02 %IA/g. For the same substance, the Muscle uptake ([1]; 60 min p.i., i.v.) was 0.26 ± 0.03 %IA/g, the Pancreas uptake ([1]; 60 min p.i., i.v.) was 2.11 ± 0.06 %IA/g and the Spleen uptake ([1]; 60 min p.i., i.v.) was 0.30 ± 0.01 %IA/g. The Stomach uptake ([1]; 60 min p.i., i.v.) was 0.66 ± 0.02 %IA/g, the “Urine + urinary bladder uptake” value ([1]; 60 min p.i., i.v.) was 3.75 ± 0.11 %IA/g and the tumor/blood ratio ([1]; 120 min p.i.) was 7.04. For the same substance, the tumor/kidney ratio ([1]; 120 min p.i.) was 1.20, the tumor/muscle ratio ([1]; 120 min p.i.) was 8.89 and the Tumor uptake ([1]; 120 min p.i., i.v.) was 1.69 ± 0.03 %IA/g. For the same substance, the Blood uptake ([1]; 120 min p.i., i.v.) was 0.24 ± 0.01 %IA/g, the Heart uptake ([1]; 120 min p.i., i.v.) was 0.15 ± 0.04 %IA/g and the Intestine uptake ([1]; 120 min p.i., i.v.) was 0.70 ± 0.05 %IA/g. The Kidney uptake ([1]; 120 min p.i., i.v.) was 1.40 ± 0.13 %IA/g, the Liver uptake ([1]; 120 min p.i., i.v.) was 0.11 ± 0.03 %IA/g and the Lung uptake ([1]; 120 min p.i., i.v.) was 0.35 ± 0.11 %IA/g. For the same substance, the Muscle uptake ([1]; 120 min p.i., i.v.) was 0.19 ± 0.02 %IA/g, the Pancreas uptake ([1]; 120 min p.i., i.v.) was 1.22 ± 0.04 %IA/g and the Spleen uptake ([1]; 120 min p.i., i.v.) was 0.12 ± 0.02 %IA/g. For the same substance, the Stomach uptake ([1]; 120 min p.i., i.v.) was 0.25 ± 0.01 %IA/g and the “Urine + urinary bladder uptake” value ([1]; 120 min p.i., i.v.) was 3.91 ± 0.22 %IA/g.
